In article PMC10802454:

Biological target: AriA (Escherichia coli strain B185)
Assay: cryo-EM structure

AriA (natural protein) showed a stoichiometry N of 6.
